Among the data in doi:10.1101/2022.04.21.489128 are stoichiometry N values, retold here.

This assay deals with wild-type FliM (Vibrio alginolyticus flagellar rotor C-ring protein) with an N-terminal His-tag (V. alginolyticus). Description: SEC. A general note: In gel filtration, larger molecules generally elute earlier.

Usually stoichiometry N stands for the number of molecules, sites or subunits per partner or assembly.

“wild-type FliM (Vibrio alginolyticus flagellar rotor C-ring protein) with an N-terminal His-tag (natural protein)” had a stoichiometry N of 2.
